# Measured values taken from patent publication CN101671397A (UNIV SICHUAN, dated 2010).
# B1: SCFV(Anti-EGFR)/Gelonin recombinant immunotoxin (抗EGFR单链抗体融合Gelonin重组免疫毒素) (other)
# chain: EVQLQQSGAELMKPGASVKISCKATGYTFSSYWIEWVKQRPGHGLEWIGEILPGSKKTNYNEKFKGKATFTADTSSNTAYMQFSSLTSEDSAVYYCARYYYRNDDYGMDYWGQGTTVTVSSGGGGSGGGGSGGGGSDIVMSQSPKSMSMSVGERVTLTCKASENVVTYVSWYQQKPEQSPKLLIYGASNRYTGVPDRFTGSGSATDFTLTISSVQAEDLADYHCGQGCSYPYTFGGGTKLEIKGSGGGGSGGGGSGLDTVSFSTKGATYITYVNFLNELRVKLKPEGNSHGIPLLRKKCDDPGKCFVLVALSNDNGQLAEIAIDVTSVYVVGYQVRNRSYFFKDAPDAAYEGLFKNTIKTRLHFGGSYPSLEGEKAYRETTDLGIEPLRIGIKKLDENAIDNYKPTEIASSLLVVIQMVSEAARFTFIENQIRNNFQQRIRPANNTISLENKWGKLSFQIRTSGANGMFSEAVELERANGKKYYVTAVDQVKPKIALLKFVDKDPK
# notes: also called ScFv(Anti-EGFR)/rGel
# B2: recombinant Gelonin (重组Gelonin) (enzyme)
# chain: GLDTVSFSTKGATYITYVNFLNELRVKLKPEGNSHGIPLLRKKCDDPGKCFVLVALSNDNGQLAEIAIDVTSVYVVGYQVRNRSYFFKDAPDAAYEGLFKNTIKTRLHFGGSYPSLEGEKAYRETTDLGIEPLRIGIKKLDENAIDNYKPTEIASSLLVVIQMVSEAARFTFIENQIRNNFQQRIRPANNTISLENKWGKLSFQIRTSGANGMFSEAVELERANGKKYYVTAVDQVKPKIALLKFVDKDPK
# notes: also called rGel
# Tests used:
# [1] = target: T1, epidermal growth factor receptor (EGFR) on human lung cancer cell line A549 (human, UniProt P00533 25-1210); assay: immunofluorescence and flow cytometry on A549 cells (summary)
# T1 construct: whole, on cells; also called 表皮生长因子受体
# [2] = target: T1, epidermal growth factor receptor (EGFR) …; assay: flow cytometry on cells (A549), detected with rabbit antiserum and goat anti-rabbit IgG-FITC
Binder,binding result [1],binding result [2]
B1,binds,
B2,,no binding (tested: 100umol/L)
